The term Kd denotes the concentration at which binding is half-saturated.

For test [1], the target named is T1, human CD46 (recombinant antigen used in affinity and mapping experiments) (human, UniProt P15529 35-285, limits assumed).
T1 construct: also called CD46 antigen
T1 sequence (looked up): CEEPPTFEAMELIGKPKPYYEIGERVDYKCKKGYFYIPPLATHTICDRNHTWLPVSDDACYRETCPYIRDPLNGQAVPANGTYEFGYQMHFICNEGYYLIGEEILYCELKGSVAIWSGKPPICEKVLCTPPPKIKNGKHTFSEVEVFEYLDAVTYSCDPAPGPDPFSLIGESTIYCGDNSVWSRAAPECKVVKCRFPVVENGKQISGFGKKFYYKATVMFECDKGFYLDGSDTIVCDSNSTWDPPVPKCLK
The experiment in a line: SPR (Biacore), human CD46 antigen series, 1:1 Langmuir model.

The target of test [2] is human CD46 on the cell surface (human), P15529. The experiment in a line: cell-based or functional assay.
In test [3] the target is T1, human CD46 (recombinant antigen used in …). The experiment in a line: bio-layer interferometry (ForteBIO, superscript F), antigen concentration series.
Experimental: (§1) With regard to the data, affinity was measured in three ways to ensure accuracy. […] Second, the affinities and kinetic constants kₒₙ and koff of the selected modulators were then measured using bio-layer interferometry analysis on a ForteBIO RED (ForteBIO, Inc.) with a standard antigen concentration series. Finally, the affinity of selected modulators was measured by surface plasmon resonance (Biacore System, GE Healthcare). Based on a standard antigen concentration series and using a 1:1 Langmuir binding model, the Kd of the antibody binding to antigen and the kinetic constants kₒₙ and koff were determined.
The target of test [4] is T2, marmoset CD46 homolog (marmoset (Callithrix jacchus), UniProt Q8HYX8 33-285, limits assumed).
T2 sequence (looked up): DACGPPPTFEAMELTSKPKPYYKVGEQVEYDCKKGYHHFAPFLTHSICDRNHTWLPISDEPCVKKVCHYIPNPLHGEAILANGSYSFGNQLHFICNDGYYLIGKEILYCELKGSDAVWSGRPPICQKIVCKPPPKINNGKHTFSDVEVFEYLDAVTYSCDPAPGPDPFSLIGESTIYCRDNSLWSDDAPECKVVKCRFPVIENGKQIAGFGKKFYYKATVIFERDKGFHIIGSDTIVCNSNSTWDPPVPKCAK
The test is described as follows: ForteBIO, concentration series of recombinant monomeric CD46 homolog. A general note: In BLI a coated tip is dipped into the sample, and binding shifts an interference pattern.
Experimental: Finally, cross-reactivity with regard to cynomolgus, marmoset, and squirrel monkey CD46 homologs were evaluated in ForteBIO using a concentration series with recombinantly expressed, monomeric CD46 antigens.

Test [5] has as its target T1, human CD46 (recombinant antigen used in …). The experiment in a line: surface plasmon resonance (Biacore, superscript B), antigen concentration series, 1:1 Langmuir model. (In SPR one partner is held on a chip, and binding of the other changes the refractive index at the surface.)
Experimental: as §1

Where a chain is given by its changes, count along the chain named.

B1: humanized antibody hSC1.N71 (antibody, human IgG1, V domains shown)
VH: QVQLQESGPGLVKPSETLSLTCTVSGGSVSSYDISWIRQPPGKGLEWIGVIWTDGGTNYNSAFMSRVTISVDTSKNQFSLKLSSVTAADTAVYYCARVYDGYPWFAYWGQGTLVTVSS
VL: DIQMTQSPSSLSASVGDRVTITCRASQGISNYLNWYQQKPGKAPKLLIYYTSSLHSGVPSRFSGSGSGTDFTLTISSLQPEDFATYYCQQYIKLPWTFGGGTKLEIKR
notes: also called humanized SC1.N71; human SC1.N71
Regarding B1, the Kd in test [1] worked out at 0.7 nM. Besides, in test [2], the effective concentrations causing 50% cell death (EC50), HEK-293T cells, streptavidin-saporin worked out at 0.0266 nM.

B2: humanized antibody hSC1.N149 (antibody, human IgG1, V domains shown)
VH: QVQLVQSGAEVKKPGASVKVSCKASGYTFTDYNMDWVRQAPGQGLEWMGDINPNNGDTFYNQKFKGRVTMTTDTSTSTAYMELRSLRSDDTAVYYCARSKYDNYPWFAYWGQGTLVTVSS
VL: B1 VL with G28D, S30N
For the molecule B2, the effective concentrations causing 50% cell death (EC50), HEK-293T cells, streptavidin-saporin in test [2] stood at 0.174 nM.

B3: N135.1 (antibody, IgG2b, V domains shown)
VH: DVQLVESGGGLVQPGGSRKLSCAASGFTFSSFGMHWVRQAPEKGLEWVAYISSATSAIYYADTVKGRFTISRDNPTNTLFLQMTSLRSEDTAMYYCARKGNNYFDYWGQGTTLTVSS
VL: QIVLTQSPAIMSASPGEKVTLSCSATSSVTYMHWLQQKPGSSPKPWIYRTSNLASGVPARFRGSGSGTSYSLTISSMEAEDAATYYCQQYHSYPPTFGGGTKLEIKR
notes: .1 is the subclone suffix; also called SC1.N135
In the case of B3, the Kd in test [3] was 1 nM. Moreover, in test [4], the binding result is “no binding”.

B4: N50.3 (antibody, IgG2b, V domains shown)
VH: EVLLHQSGPELVKPGASVKIPCKASGYTFTDYNMDWVKQSHGKSLEWIGDINPNNGGTFYNQKFKGKATLTVHKSSSTAFMELRSLTSEDTAVYYCTRSKYDNYPWFAYWGQGTLVTVSA
VL: DIQMTQITSSLSASLGDRVTISCSASQGISNYLNWYQQKPDGTVKLLIYYTSSLHSGVPSRFRGSGSGTNYSLTISNLEPEDIATYYCQQYIKLPWTFGGGTKLEIKR
notes: .3 is the subclone suffix; also called SC1.N50
Regarding B4, the Kd in test [3] turned out to be 1 nM.

B5: N146.2 (antibody, IgG1, V domains shown)
VH: EVQLVESGGGLVKPGGSLKLSCAASGFTFSSFGMSWVRQTPEKRLEWVAAINSNGGNTYYSDTVKGRFTISRDNAKNTLYLQMSSLRSADTALYYCARVVHFDVWGAGTTVTVSS
VL: AIQMTQTTSSLSASLGDRVTISCSASQDISNYLNWYQQKPDGTVKLLIYYTSSLHSGVPSRFSGSGSGTDYSLTISNVEPEDVATYYCQQYSELPYTFGGGTKLEINR
notes: Kept apart from m10, which is the mouse/human chimeric form of the same clone; also called SC1.N146 (murine hybridoma clone)
In the case of B5, the equilibrium dissociation constant (Kd) in test [5] turned out to be 1.5 nM. Besides, in test [4], the binding result is “no binding”.

B6: N95.1 (antibody, IgG2a, V domains shown)
VH: QVQLQQSGAELARPGASVKLSCKASDYTFTSYGISWVKQRTGQGLEWIGEIFPRSGNTYYNEKFKGKATLTADKSSSTAYMELRSLTSEDSAVYFCARGLGGAMDYWGQGTSVIVSS
VL: DIVMTQAAPSVPVTPGESVSISCRSSKSLLHSNGNTYLYWFLQRPGQSPQLLIYRMSNLASGVPDRFSGSGSGTTFTLRISGVEAEDVGVYYCMQHLEYPCTFGGGTKLEIKR
notes: .1 is the subclone suffix; also called SC1.N95
In the case of B6, the Kd in test [3] stood at 8 nM. For the same molecule, in test [4], the binding result is given as “no binding”.

The record behind these values is patent US20170081419A1 (AbbVie / Abbott, published 2017).
